Data on one molecule can be found in patent publication US20130280758A1 (Regeneron, published 2013).

The target in the assay is T1, rat Tie-2 (rTie-2), as used in BIAcore analysis (rat, UniProt A0ABK0L6J5 19-740).
T1 construct: It may have been rTie-2-Fc
Description: BIAcore. For orientation: Surface plasmon resonance follows binding to a sensor surface in real time, without labels.

In general, Kd refers to the concentration at which binding is half-saturated. A high value points to lower affinity.

B1: FD1-Fc-FD1 (Fc fusion, human)
chain (part 1 of 2): FRDCADVYQAGFNKSGIYTIYINNMPEPKKVFCNMDVNGGGWTVIQHREDGSLDFQRGWKEYKMGFGNPSGEYWLGNEFIFAITSQRQYMLRIELMDWEGNRAYSQYDRFHIGNEKQNYRLYLKGHTGTAGKQSSLILHGADFSTKDADNDNCMCKCALMLTGGWWFDACGPSNLNGMFYTAGQNHGKLNGIKWHYFKGPSYSLRSTTMMIRPLDF
chain (part 2 of 2): B1 chain (part 1 of 2)
notes: domain: fibrinogen domain of Ang1; also called BA1; not shown: Fc
B1 gave a Kd of 2 nM.
